The results in this text go back to US20240108738A1, “BICYCLIC PEPTIDE LIGANDS SPECIFIC FOR NK CELLS” (Bicycle Tx Limited, priority 2021, published 2024).

Numbered stars: 1 amine (or outer) side, 2 acyl side, 3 side chain; on linkers, the order of the positions; unused ones are H or OH. Bridge positions count the residues as written; N and C are the ends. Ends that are not written are not given here. * marks the point of attachment. TBMT = 2,4,6-tris(bromomethyl)-s-triazine, C(c1nc(C[*:2])nc(C[*:3])n1)[*:1]; Pent4ynoyl = C#CCCC(=O)*

Chain of Human NKp46 Fc tag (Acro Biosystems, NC1-H5257) (human), O76036 (O76036 22-255 limits assumed): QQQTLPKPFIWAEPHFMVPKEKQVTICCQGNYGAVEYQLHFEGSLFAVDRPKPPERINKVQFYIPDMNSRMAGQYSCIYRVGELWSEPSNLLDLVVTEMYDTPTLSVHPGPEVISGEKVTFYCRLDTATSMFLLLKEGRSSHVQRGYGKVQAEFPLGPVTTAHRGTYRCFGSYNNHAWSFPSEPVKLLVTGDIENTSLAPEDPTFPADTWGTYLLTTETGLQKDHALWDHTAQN

The first assay deals with biotinylated human FcγRIII (CD16a), variant not stated (human) (UniProt P08637). The assay can be described thus: SPR Method A.
Chain of biotinylated human FcγRIII (CD16a), variant not stated (human) (P08637 17-208, change not shown): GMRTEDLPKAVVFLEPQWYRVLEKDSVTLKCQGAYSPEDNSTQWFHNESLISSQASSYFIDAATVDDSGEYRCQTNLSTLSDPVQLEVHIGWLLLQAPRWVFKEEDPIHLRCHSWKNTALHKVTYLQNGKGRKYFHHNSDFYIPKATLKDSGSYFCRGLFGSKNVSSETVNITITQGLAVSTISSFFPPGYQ
In the case of ACRWSVEDPCGAWCAK(Pent4ynoyl)-NH2 (linker 2-10-14 via TBMT (inferred)) [BCY13883], the Kd came to 1800 nM. This lies in the single-digit micromolar range. The same measure, in the same setting: as for ACVGLEELGPCSDLCAK(Pent4ynoyl)-NH2 (linker 2-11-15 via TBMT (inferred)) [BCY13886], the figure is 2200 nM.

The next assay has as its target Human NKp46 Fc tag (Acro Biosystems, NC1-H5257) (human), O76036. In words: SPR Method 1 and/or 2.
ACNLQAPCMVTGKVCA (modifications not checked) [BCY19702]: the Kd came to 2680 nM. Still for that read-out and setting: the result for ACNLQAPCMLTGAVCA (modifications not checked) [BCY18304] reads 1530 nM.

Consider ACLLHDHCPNTHPKMCA (modifications not checked) [BCY14457], for which the Kd came to 2270 nM. Still for that read-out and setting: as for ACDLTTHNCIWGVCA (modifications not checked) [BCY14458], the figure is 1260 nM; as for ACNLQNPCMKFPCA (modifications not checked) [BCY15102], 1090 nM; as for ACNLQQACLHTGKVCA (modifications not checked) [BCY14454], 2760 nM.

The molecule ACLLHDHCPNTHPKLCA (modifications not checked) [BCY15103] registered a Kd of 1660 nM. Same read-out and setting: as for ACNLQAACMLTGKVCA (modifications not checked) [BCY18299], the figure is 1800 nM; as for ACNLQAPCMHTGKVCA (modifications not checked) [BCY19711], 2750 nM; as for ACDLTTHNCQWGACA (modifications not checked) [BCY18272], 3190 nM. ACLLHEHCPNTHPKMCA (modifications not checked) [BCY15104] yielded a Kd of 2880 nM. This Kd and that of the molecule before are within 1.5-fold of each other. For the molecule ACNLQQACMQTGKVCA (modifications not checked) [BCY19713], the Kd came to 1830 nM. Compared with the last molecule, the Kd is about 1.6-fold lower.

Regarding ACNLQAPCLHTGKVCA (modifications not checked) [BCY19712], the Kd stood at 3140 nM.

The molecule CNLQAPCMLTGKVCA (modifications not checked) [BCY19694] registered a Kd of 2510 nM. The same measure, in the same setting: the result for ACDLTTHNCVWGICA (modifications not checked) [BCY18285] reads 3760 nM; that for CDLTTHNCQWGICA (modifications not checked) [BCY19718], 1110 nM. The same measure, in the same setting: as for KCNLQAPCMLTGKVCA (modifications not checked) [BCY19695], the figure is 2380 nM. The same measure, in the same setting: as for ACNLQAPCMATGKVCA (modifications not checked) [BCY18301], the figure is 4030 nM.

In the case of ACNLQAPCMYTGKVCA (modifications not checked) [BCY18318], the dissociation constant Kd amounted to 1920 nM. Still for that read-out and setting: as for ACDLQTHNCQWGICA (modifications not checked) [BCY18277], the figure is 1520 nM.

In the case of ACLLHDHCPNTHPIICA (modifications not checked) [BCY15106], the Kd came out at 2670 nM.

Regarding ACDLATHNCQWGICA (modifications not checked) [BCY18265], the dissociation constant (Kd) is 1480 nM.

For ACNLQAPCMETGKVCA (modifications not checked) [BCY18316], the Kd worked out at 1510 nM. As to ACLLHDHCPNSHPEICA (modifications not checked) [BCY15105], the Kd came to 3730 nM. Still for that read-out and setting: as for ACNLQAPCMLAGKVCA (modifications not checked) [BCY18302], the figure is 5380 nM; as for ACDLTTHNCAWGICA (modifications not checked) [BCY18269], 1640 nM; as for CNLQAPCMLTGKVC (modifications not checked) [BCY18295], 6410 nM.
